Measured values reported in IntAct's records for PubMed 29892012.

B1: Galectin-8 (Homo sapiens), O00214 (parent)
chain: MMLSLNNLQNIIYNPVIPFVGTIPDQLDPGTLIVIRGHVPSDADRFQVDLQNGSSMKPRADVAFHFNPRFKRAGCIVCNTLINEKWGREEITYDTPFKREKSFEIVIMVLKDKFQVAVNGKHTLLYGHRIGPEKIDTLGIYGKVNIHSIGFSFSSDLQSTQASSLELTEISRENVPKSGTPQLRLPFAARLNTPMGPGRTVVVKGEVNANAKSFNVDLLAGKSKDIALHLNPRLNIKAFVRNSFLQESWGEEERNITSFPFSPGMYFEMIIYCDVREFKVAVNGVHSLEYKHRFKELSSIDTLEINGDIHLLEVRSW
B2: Angio-associated migratory cell protein (Homo sapiens), Q13685 (parent)
chain: MESESESGAAADTPPLETLSFHGDEEIIEVVELDPGPPDPDDLAQEMEDVDFEEEEEEEGNEEGWVLEPQEGVVGSMEGPDDSEVTFALHSASVFCVSLDPKTNTLAVTGGEDDKAFVWRLSDGELLFECAGHKDSVTCAGFSHDSTLVATGDMSGLLKVWQVDTKEEVWSFEAGDLEWMEWHPRAPVLLAGTADGNTWMWKVPNGDCKTFQGPNCPATCGRVLPDGKRAVVGYEDGTIRIWDLKQGSPIHVLKGTEGHQGPLTCVAANQDGSLILTGSVDCQAKLVSATTGKVVGVFRPETVASQPSLGEGEESESNSVESLGFCSVMPLAAVGYLDGTLAIYDLATQTLRHQCQHQSGIVQLLWEAGTAVVYTCSLDGIVRLWDARTGRLLTDYRGHTAEILDFALSKDASLVVTTSGDHKAKVFCVQRPDR
B3: Consortin (Homo sapiens), Q6PJW8 (parent)
chain: MDDSDTPTYYLQIEPQDGCHPGDSVERSVTCLPSASDENENQLDGDGHEHLTSSDSAMGKPQVSEQDSLNNNESCTLSCEVAAGENLQNTLCEASRDEQAFLGKDKKIPGKRSPRSKKGTAKKIPPGLFSGDIAPLMQEKVLSAVTYAVDDEEAAEVNANEQPEAPKLVLQSLFSLIRGEVEQLDSRALPLCLHQIAESYFQEEDYEKAMKFIQLERLYHEQLLANLSAIQEQWETKWKTVQPHTVTALRNSEKGFNGEDFERLTKICATHQDPLLSKHKIAAVEKSQERKCSTQLLVSEDPKEGGATTKESESKTCLGTESSKESQHTVEPLGSSPCCHQMDVQTDSPSLSVTAGKDHMEELLCSAEATLALHTQSSETAGSPSGPDSSEDACEDDSRLQLAQTEACQDVARIEGIAEDPKVFLSSKSKTEPLISPGCDRIPPALISEGKYSQAQRKELRLPLRDASEALPTDQLENNELNELQQPDLTDSDGKSPQAQADSDGSENVLCGNNQISDLGILLPEVCMAPEEKGDKDDQLNKETEDYLNSLLEGCLKDTEDSLSYEDNQDDDSDLLQDLSPEEASYSLQENLPSDESCLSLDDLAKRIEIAEVVPTEGLVSILKKRNDTVGDHPAQMQHKPSKRRVRFQEIDDSLDQDEVGGGSCILLVLLCIATVFLSVGGTALYCTFGDMESPVCTDFADNMDFYYTKLLQGVAELKHWIYLS
B4: Abl interactor 2 (Homo sapiens), Q9NYB9 (parent)
chain: MAELQMLLEEEIPGGRRALFDSYTNLERVADYCENNYIQSADKQRALEETKAYTTQSLASVAYLINTLANNVLQMLDIQASQLRRMESSINHISQTVDIHKEKVARREIGILTTNKNTSRTHKIIAPANLERPVRYIRKPIDYTILDDIGHGVKWLLRFKVSTQNMKMGGLPRTTPPTQKPPSPPMSGKGTLGRHSPYRTLEPVRPPVVPNDYVPSPTRNMAPSQQSPVRTASVNQRNRTYSSSGSSGGSHPSSRSSSRENSGSGSVGVPIAVPTPSPPSVFPAPAGSAGTPPLPATSASAPAPLVPATVPSSTAPNAAAGGAPNLADGFTSPTPPVVSSTPPTGHPVQFYSMNRPASRHTPPTIGGSLPYRRPPSITSQTSLQNQMNGGPFYSQNPVSDTPPPPPPVEEPVFDESPPPPPPPEDYEEEEAAVVEYSDPYAEEDPPWAPRSYLEKVVAIYDYTKDKEDELSFQEGAIIYVIKKNDDGWYEGVMNGVTGLFPGNYVESIMHYSE
partner: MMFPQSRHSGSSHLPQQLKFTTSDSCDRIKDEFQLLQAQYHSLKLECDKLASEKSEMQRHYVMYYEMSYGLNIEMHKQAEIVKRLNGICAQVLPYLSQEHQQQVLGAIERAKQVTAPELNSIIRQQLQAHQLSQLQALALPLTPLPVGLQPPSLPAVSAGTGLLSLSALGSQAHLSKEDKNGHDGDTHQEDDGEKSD
B5: Late cornified envelope protein 1B (Homo sapiens), Q5T7P3 (parent)
chain: MSCQQNQQQCQPPPKCIPKCPPKCLTPRCPPKCPPKCPPVSSCCSVSSGGCCGSSSGGSCGSSSGGCCSSGGGGCCLSHHRRRRSHCHRPQSSGCCSQPSGGSSCCGGGSGQHSGGCC
partner: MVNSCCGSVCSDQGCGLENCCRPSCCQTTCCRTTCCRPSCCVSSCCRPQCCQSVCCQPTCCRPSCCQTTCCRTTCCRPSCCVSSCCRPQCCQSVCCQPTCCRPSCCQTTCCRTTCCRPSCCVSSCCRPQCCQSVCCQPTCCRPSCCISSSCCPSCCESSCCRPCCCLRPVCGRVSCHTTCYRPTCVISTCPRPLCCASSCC

Variants of: B1
Details: with taxb1_human TAX1BP1, Q86VP1
Chain of taxb1_human TAX1BP1, Q86VP1 (Q86VP1 whole entry): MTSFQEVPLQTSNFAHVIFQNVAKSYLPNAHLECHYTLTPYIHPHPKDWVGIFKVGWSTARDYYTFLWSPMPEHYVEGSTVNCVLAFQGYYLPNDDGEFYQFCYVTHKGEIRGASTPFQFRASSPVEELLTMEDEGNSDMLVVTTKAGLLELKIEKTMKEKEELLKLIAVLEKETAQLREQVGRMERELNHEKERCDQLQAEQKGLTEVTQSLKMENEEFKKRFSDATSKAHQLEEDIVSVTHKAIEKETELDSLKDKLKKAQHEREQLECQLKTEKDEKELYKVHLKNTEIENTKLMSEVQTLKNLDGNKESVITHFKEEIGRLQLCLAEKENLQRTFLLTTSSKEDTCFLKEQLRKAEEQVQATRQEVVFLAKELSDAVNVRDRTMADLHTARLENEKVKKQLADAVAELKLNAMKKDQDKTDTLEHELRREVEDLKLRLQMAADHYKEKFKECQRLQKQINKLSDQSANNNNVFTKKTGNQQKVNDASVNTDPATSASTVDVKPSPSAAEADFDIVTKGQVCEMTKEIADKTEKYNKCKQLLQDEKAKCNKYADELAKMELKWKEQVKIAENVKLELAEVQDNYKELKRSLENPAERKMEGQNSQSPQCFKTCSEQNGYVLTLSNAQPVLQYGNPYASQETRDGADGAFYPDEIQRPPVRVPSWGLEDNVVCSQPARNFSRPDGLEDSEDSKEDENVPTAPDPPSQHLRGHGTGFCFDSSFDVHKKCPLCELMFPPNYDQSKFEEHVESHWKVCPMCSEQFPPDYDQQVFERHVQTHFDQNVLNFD

effect of a mutation on the interaction | Variant
with no effect | MMLSLNNLQNIIYNPVIPFVGTIPDQLDPGTLIVIRGHVPSDADRFQVDLQNGSSMKPRADVAFHFNPRFKRAGCIVCNTLINEKWGREEITYDTPFKREKSFEIVIMVLKDKFQVAVNGKHTLLYGHRIGPEKIDTLGIYGKVNIHSIGFSFSSDLQSTQASSLELTEISRENVPKSGTPQLRLPFAARLNTTMGPGRTVVVKGEVNANAKSFNVDLLAGKSKDIALHLNPRLNIKAFVRNSFLQESWGEEERNITSFPFSPGMYFEMIIYCDVREFKVAVNGVHSLEYKHRFKELSSIDTLEINGDIHLLEVRSW [P194T]

Variants of: B2
Details: with bhe40_human BHLHE40, O14503
Chain of bhe40_human BHLHE40, O14503 (O14503 whole entry): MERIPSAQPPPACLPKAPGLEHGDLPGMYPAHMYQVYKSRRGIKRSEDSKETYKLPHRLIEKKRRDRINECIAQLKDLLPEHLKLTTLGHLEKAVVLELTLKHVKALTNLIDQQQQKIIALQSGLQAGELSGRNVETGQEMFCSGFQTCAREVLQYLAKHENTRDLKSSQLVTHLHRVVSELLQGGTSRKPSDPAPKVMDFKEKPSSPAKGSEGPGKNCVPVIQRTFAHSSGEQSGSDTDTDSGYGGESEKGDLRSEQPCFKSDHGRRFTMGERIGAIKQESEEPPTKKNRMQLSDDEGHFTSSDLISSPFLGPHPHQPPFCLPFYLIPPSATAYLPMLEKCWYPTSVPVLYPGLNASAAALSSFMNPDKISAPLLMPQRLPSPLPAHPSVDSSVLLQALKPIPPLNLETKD

effect of a mutation on the interaction | Variant
with no effect | MESESESGAAADTPPLETLSFHGDEEIIEVVELDPGPPDPDDLAQEMEDVDFEEEEEEEGNEEGWVLEPQEGVVGSMEGPDDSEVTFALHSASVFCVSLDPKTNTLAVTGGEDDKAFVWRLSDGELLFECAGHKDSVTCAGFSHDSTLVATGDMSGLLKVWQVDTKEEVWSFEAGDLEWMEWHPRAPVLLAGTADGNTWMWKVPNGDCKTFQGPNCPATCGRVLPDGKRAVVGYEDGTIRIWDLKQGSPIHVLKGTEGHQGPLTCVAANQDGSLILTGSVDCQAKLVSATTGKVVGVFRPETVASQPSLGEGEESESNSVESLGFCSVMPLAAVGYLDGTLAFYDLATQTLRHQCQHQSGIVQLLWEAGTAVVYTCSLDGIVRLWDARTGRLLTDYRGHTAEILDFALSKDASLVVTTSGDHKAKVFCVQRPDR [I343F]

Variants of: B3
Details: with rop1a_human ROPN1, Q9HAT0
Chain of rop1a_human ROPN1, Q9HAT0 (Q9HAT0 whole entry): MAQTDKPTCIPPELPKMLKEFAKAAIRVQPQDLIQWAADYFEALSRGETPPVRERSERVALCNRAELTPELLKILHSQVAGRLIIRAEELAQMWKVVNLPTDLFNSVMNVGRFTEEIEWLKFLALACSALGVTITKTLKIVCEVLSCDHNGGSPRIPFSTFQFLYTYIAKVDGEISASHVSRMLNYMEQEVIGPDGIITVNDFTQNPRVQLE

effect of a mutation on the interaction | Variant
disrupting interaction strength | V25M

Variants of: B4
Details: with tle5_human TLE5, Q08117

effect of a mutation on the interaction | Variant
with no effect | R373C

Variants of: B4
Details: with tle5_human TLE5, Q08117
Remark: another data set of the same source

effect of a mutation on the interaction | Variant
with no effect | E202K

Variants of: B5
Details: with kr412_human KRTAP4-12, Q9BQ66

effect of a mutation on the interaction | Variant
disrupting interaction strength | MSCQQNQQQCQPPPKYIPKCPPKCLTPRCPPKCPPKCPPVSSCCSVSSGGCCGSSSGGSCGSSSGGCCSSGGGGCCLSHHRRRRSHCHRPQSSGCCSQPSGGSSCCGGGSGQHSGGCC [C16Y]
